What is called EC50 is the midpoint of the concentration-response curve. Low values mean an effect from little substance, high ones a need for much substance.

Sequences and labels used below:
B1: positive control scFv G03 (scFv)
scFv: EVQLVQSGAEVKKPGATVKISCKVSGYTFTSYWMHWVQQAPGKGLEWIGYINPGTGYIEYNQKFKDRVTITADKSTDTAYMELSSLRSEDTAVYYCASSTAPFDYWGQGTLVTVSSGGGGSGGGGSGGGASEIVLTQSPGTLSLSPGERATLSCKASQDIKSYLSWYQQKPGQAPRLLIYYATRLADGIPDRFSGSGSGTDFTLTISRLEPEDFAVYYCLQYDESPYTFGQGTKLEIK
B2: scFv 2447_3A08 (scFv)
scFv: EVQLVQSGAEVKKPGASVKVSCKASGYTFTSYGISWVRQAPGQGLEWMGWISAYNGNTNYAQKLQGRVTMTTDTSTSTAYMELRSLRSDDTAVYYCARDRATIFGVVTPFDYWGQGTLVTVSSGGGGSGGGGSGGGASSYELTQDPAVSVALGQTVRITCQGDSIRSYSASWYQQKPGQAPRLVIYGKNNRPSGIPDRVSGSTSGNTASLTVTGAQAEDEADYYCNSRDSSGNRVVFGGGTQLTVL
B3: scFv 2447_3B07 (scFv)
scFv: QVQLVESGGVVVQPGGSLRLSCAASGFTFDDYAMHWVRQAPGRGLEWVSLTSWDGGSTYYADSVKGRFTISRDNSKNSLYLQMNSLRAEDTALYYCAKDHSSGWYNGGMDVWGQGTMVTVSSGGGGSGGGGSGGGASSYELTQDPAVSVALGQTVRITCQGDSLRSYYASWYQQKPGQAPVLVIYGKNNRPSGIPDRFSGSSSGNTASLTITGAQAEDEADYYCNSRDSSGNHVVFGGGTKLTVL
B4: scFv 2447_3H02 (scFv)
scFv: EVQLLESGGGLVQPGRSLRLSCAASGFTFDDYAMHWVRQAPGKGLEWVSGISWDSGSIGYADSVKGRFTISRDNAKNSLYLQMNSLRAEDTALYYCAKDVSSGWYWYAFDIWGQGTLVTVSSGGGGSGGGGSGGGASSYELTQDPAVSVALGQTVRITCQGDILRSYYASWYQQKPGQAPVLVIYGKNNRPSGIPDRFSGSSSGNTASLTITGAQAEDEADYYCNSRDSSGNRVVFGGGTKLTVL
notes: also called #9
B5: scFv 2447_3A09 (scFv)
scFv: EVQLLESGGGLVQPGRSLRLSCAATGFTFDDYAMHWVRQAPGKGLEWVSGISWNSGSIGYADSVKGRFTISRDNAKNSLYLQMNSLRAEDTASYYCAKDVSSGWYWYAFDIWGQGTLVTVSSGGGGSGGGGSGGGASSYELTQDPAVSVALGQTVRITCQGDSLRSYYASWYQQKPGQAPVLVIYGKNNRPSGIPGRFSGSSSGNTASLTVTGAQAEDEADYYCNSRDSGGSVVFGGGTKLTVL
notes: also called #5
B6: scFv 2447_3A12 (scFv)
scFv: EVQLVQSGAEVKKPGASVKVSCKASGYTFTSYGISWVRQAPGQGLEWMGWISAYNGNTNYAQKLRGRVTMTTDTSTSTAYMELRSLRSDDTAVYYCARDPHILTGYYRGGWFDPWGQGTLVTVSSGGGGSGGGGSGGGASSYELTQDPAVSVVLGQTVRITCQGDSLRSYYASWYQQKPGQAPVLVIYGKNNRPSGIPDRFSGSSSGNTASLTITGAQAEDEADYYCNSRDSSGNHRVFGGGTKLTVL
notes: also called #6
B7: scFv 2447_2H08 (scFv)
scFv: EVQLVQSGAEVKKPGASVKVSCKASGYTFTNYGISWVRQAPGQGLEWMGWISAYNGNTNYAQKLQGRVTMTTDTSTSTAYMELRSLRSDDTAVYYCARDPHILTGYYRGGWFDPWGQGTTVTVSSGGGGSGGGGSGGGASSYELTQDPAVSVALGQTVTITCQGDSLRTSYAGWLQQKPGQAPVLVLYGKTSRPSGIPDRFSGSTSGNTASLTITGAQAEDEAEYFCHSRDSNDNYLEVVFGGGTKLTVL
B8: scFv 2447_3C08 (scFv)
scFv: EVQLLESGGGLVQPGGSLRLSCAASGFTFDDYAMHWVRQAPGKGLEWVSGISWNSGSIGYADSVKGRFTISRDNAKNSLYLQMNSLRAEDTALYYCAKDRGSGYEGNYYGMDVWGQGTLVTVSSGGGGSGGGGSGGGASSYELTQDPAVSVALGQTVRITCQGDSLRSYYASWYQQKPGQAPVLVIYGKNNRPSGIPDRFSGTTSGNTASLTITGAQAEDEADYYCNSRDSSGNHYVFGTGTKVTVL
B9: scFv 2447_3A01 (scFv)
scFv: EVQLLESGGGLVQPGGSLRLSCAASGFTFDDYAMHWVRQAPGKGLEWVSGISWNSGSIVYADFVKGRFTISRDNAKNSLYLQMNSLRAEDTALYYCAKDISSGWYPGTFDYWGQGTLVTVSSGGGGSGGGGSGGGASSYELTQDPAVSVALGQTVRITCQGDSLRSYYASWYQQKPGQAPVLVIYGKNNRPSGIPDRFSGSSSGNTASLTVTGAQAEDEADYYCSSRDSSDDVVFGGGTQLTVL
B10: scFv 2447_3H08 (scFv)
scFv: EVQLLESGGGLVQPGRSLRLSCAASGFTFDDYAMHWVRQAPGKGLEWVSGISWNSGSIDYADSVKGRFTISRDNSKNTLYLQMNSLRAEDTAVYYCARDRSSGWYTGSFDYWGQGTLVTVSSGGGGSGGGGSGGGASSYELTQDPAVSVALGQTVRITCQGDSLRSYYASWYRQKPGQAPVLVIYGKNNRPSGIPDRFSGSSSGNTASLTIIGAQAEDEADYYCQSRDSSDNRVLFGGGTKVTVL
notes: also called #10

This experiment deals with T1, mucin1 (MUC1) naturally expressed on human breast cancer cell lines (human, UniProt P15941 24-1255).
T1 construct: whole, on cells; The cell line of each entry is named under assay or readout; also called MUC1 on T47D cells; MUC1 on HCC70 cells
T1 sequence (P15941 24-1255): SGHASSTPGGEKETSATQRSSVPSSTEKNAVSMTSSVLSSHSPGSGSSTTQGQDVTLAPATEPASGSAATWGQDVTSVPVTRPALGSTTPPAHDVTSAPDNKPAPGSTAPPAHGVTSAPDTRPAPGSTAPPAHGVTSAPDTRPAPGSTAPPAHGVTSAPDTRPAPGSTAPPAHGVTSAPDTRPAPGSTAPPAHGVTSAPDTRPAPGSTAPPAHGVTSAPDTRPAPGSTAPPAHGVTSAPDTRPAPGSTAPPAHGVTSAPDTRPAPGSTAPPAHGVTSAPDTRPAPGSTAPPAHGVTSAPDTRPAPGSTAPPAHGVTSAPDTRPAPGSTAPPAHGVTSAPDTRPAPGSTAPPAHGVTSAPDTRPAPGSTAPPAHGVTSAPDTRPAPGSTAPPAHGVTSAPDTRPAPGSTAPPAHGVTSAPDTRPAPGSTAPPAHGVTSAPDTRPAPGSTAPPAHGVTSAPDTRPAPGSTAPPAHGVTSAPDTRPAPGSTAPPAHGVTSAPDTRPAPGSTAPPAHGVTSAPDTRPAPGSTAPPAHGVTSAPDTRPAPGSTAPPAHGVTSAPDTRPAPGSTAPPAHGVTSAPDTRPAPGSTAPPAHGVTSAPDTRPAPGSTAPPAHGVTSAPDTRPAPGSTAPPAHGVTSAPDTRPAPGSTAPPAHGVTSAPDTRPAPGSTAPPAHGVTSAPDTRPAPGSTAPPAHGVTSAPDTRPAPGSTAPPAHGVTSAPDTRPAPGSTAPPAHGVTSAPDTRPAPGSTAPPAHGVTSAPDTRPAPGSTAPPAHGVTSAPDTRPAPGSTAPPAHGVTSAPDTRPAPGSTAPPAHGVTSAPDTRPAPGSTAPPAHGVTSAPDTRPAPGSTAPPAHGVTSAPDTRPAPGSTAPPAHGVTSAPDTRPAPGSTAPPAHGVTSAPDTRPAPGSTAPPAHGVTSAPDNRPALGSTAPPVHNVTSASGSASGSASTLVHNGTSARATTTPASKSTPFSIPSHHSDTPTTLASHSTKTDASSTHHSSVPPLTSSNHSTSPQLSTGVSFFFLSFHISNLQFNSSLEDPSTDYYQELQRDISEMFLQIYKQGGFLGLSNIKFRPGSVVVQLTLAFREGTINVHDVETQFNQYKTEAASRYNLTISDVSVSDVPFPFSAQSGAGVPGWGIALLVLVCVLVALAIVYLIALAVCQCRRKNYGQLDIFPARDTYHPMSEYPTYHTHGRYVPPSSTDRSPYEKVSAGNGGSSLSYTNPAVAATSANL
As to the kind of experiment: flow cytometry (PE MFI, corrected to G03 at 380 ug/mL) on T47D cells. On the technique in general: In flow cytometry, cells or beads pass a laser one at a time.
With B1, the 50% effective concentration (EC50) stood at 3.56 µg/mL.
Consider B2, for which the EC50 came out at 3.76 µg/mL.
Under B3 stands 3.47 µg/mL.
Turning to B4, the EC50 came to 1.6 µg/mL.
B5 returned an EC50 of 2.2 µg/mL.
Take B6: the EC50 was 0.75 µg/mL.
Next, B7: 130 µg/mL.
B8 returned an EC50 of 2.04 µg/mL.
Under B9 stands 11.1 µg/mL; under B10, 5.6 µg/mL.

(Values after patent publication US20250281533A1 (LG CHEM, published 2025).)
